According to publication PMC9708791:

Molecular target: PER2 (V5-Per2) (UniProt O15055)
Assay: co-immunoprecipitation of V5-Per2 and HA-GSK3β
Details: reference: wild-type HA-GSK3β; sites S9

Substance: GSK3β (HA-tagged, Addgene plasmid) (from UniProt P49841) HA-GSK3β S9A
- binding against the reference: lost
